Experiments:
[1] = glucosidase activity measurement of culture supernatant (pNPG); format: biochemical; conditions: Example 9, Table 11
Description: A mutant strain which formed a large colony was selected from P3AaBGL1 mutant strain library. Then, thus selected strain and P3ASP3326 strain as the original strain were cultivated in 150 μl/well (96-well plate) of YES medium at 30° C. for two days. 50 μl of each culture supernatant was diluted by 150 μl of 50 mM acetate buffer (pH 5.0) to prepare a diluted enzyme sample. Then, the enzymatic activity of the sample was measured in accordance with the following method.
To 10 μl of 20 mM p-nitrophenyl-β-D-glucoside (hereinafter abbreviated as pNPG), 10 μl of 1M sodium acetate buffer solution (pH 5.0) and 130 μl of water were added, and then 50 μl of the diluted enzyme sample was introduced for reacting them at 37° C. for 10 minutes. 100 μl of the reaction mixture was mixed with 100 μl of 2% sodium carbonate solution to terminate reaction, and then the amount of free p-nitrophenol was colorimetrically measured at a wavelength of 450 nm.
The amount of enzyme that produces 1 μmol of p-nitrophenol per minute was defined as 1 U.
The P3AaBGL1 mutant strain obtained as above was cultivated in YES medium at 30° C. for one day. 100 μl of the culture broth was inoculated on 5 ml of YPD medium (1% of yeast extract, 2% of peptone, and 2% of glucose), followed by cultivation at 30° C. for two days. Thereafter, the culture broth was centrifuged to obtain a culture supernatant.
(§1) By using the above-obtained culture supernatant of the P3AaBGL1 mutant strain, a diluted enzyme sample was prepared, and then the enzymatic activity of the sample was measured in accordance with the above-described activity measurement method. Further, the glucose inhibition at a final glucose concentration of from 0.1 to 200 mM and the thermostability at a warming temperature of from 50 to 75° C. were measured for evaluation.

[2] = glucose inhibition measurement (residual glucosidase activity in the presence of glucose); format: biochemical; conditions: for Residual glucosidase activity, Glc 0 mM / Residual glucosidase activity, Glc 1 mM / Residual glucosidase activity, Glc 5 mM / Residual glucosidase activity, Glc 10 mM / Residual glucosidase activity, Glc 20 mM / Residual glucosidase activity, Glc 50 mM / Residual glucosidase activity, Glc 100 mM / Residual glucosidase activity, Glc 200 mM: Example 9; for Residual glucosidase activity, Glc 0 mM: glucose 0 mM (reference set to 100); for Residual glucosidase activity, Glc 1 mM: glucose 1 mM; for Residual glucosidase activity, Glc 5 mM: glucose 5 mM; for Residual glucosidase activity, Glc 10 mM: glucose 10 mM; for Residual glucosidase activity, Glc 20 mM: glucose 20 mM; for Residual glucosidase activity, Glc 50 mM: glucose 50 mM; for Residual glucosidase activity, Glc 100 mM: glucose 100 mM; for Residual glucosidase activity, Glc 200 mM: glucose 200 mM; for resistance to glucose inhibition (in words): compared with P3AaBGL1 / β-glucosidase without the mutation
Description: To 10 μl of 20 mM pNPG, 10 μl of 1M sodium acetate buffer solution (pH 5.0) and from 4 to 10 μl of 1M glucose (final concentration of from 20 to 50 mM) were added, followed by addition of water up to the total volume of 150 μl. Thereafter, 50 μl of the diluted enzyme sample was introduced for reacting them at 37° C. for 10 minutes. As a control, a glucose-free reaction mixture was used, and then the reaction was carried out at 37° C. for 10 minutes, in the same manner. 100 μl of each reaction mixture was mixed with 100 μl of 2% sodium carbonate solution to terminate reaction, and then the amount of liberated p-nitrophenol was colorimetrically measured at a wavelength of 450 nm.
The ratio (%) of the colorimetric value of each reaction mixture to the colorimetric value of the control sample (glucose-free sample) was defined as the residual activity after glucose inhibition.
as §1
(§2) 11F10 strain, 22A12 strain, 28C02 strain, 29F09 strain and mutBGL1 strain selected from the mutant strains, and ASP3326 strain as the original strain were cultivated in a Sakaguchi flask containing 100 ml of YPD medium at 30° C. for two days. To each of the culture supernatants obtained by cultivating them, […] was added until 80% saturation was reached, thereby to carry out ammonium sulfate precipitation at 4° C. for 2 hours. Thereafter, centrifugation was carried out to collect pellets, and the pellets were dissolved in 10 ml of 10 mM citrate phosphate buffer solution (pH 7.0). Then, desalting and concentration were carried out by using an ultrafiltration membrane having MWCO of 100,000, thereby to recover 1 ml of a crude liquid. Thus recovered crude liquid was purified by using Hitrap QXL column to collect a fraction of a peak of pNPG activity, thereby to obtain a purified sample. Elution was carried out by using a 10 mM citrate phosphate buffer solution (pH 7.0) and a NaCl concentration gradient (0 to 1M).
(§3) In the same manner as in Example 1, the residual glucosidase activities after glucose inhibition at a glucose concentration of from 0.1 to 200 mM were measured. Further, the residual glucosidase activities after heat treatment at a temperature of from 50 to 75° C. for 10 minutes were measured.

[3] = thermostability measurement (residual glucosidase activity after heat treatment); format: physicochemical; conditions: for Residual glucosidase activity, Temp 50° C. / Residual glucosidase activity, Temp 55° C. / Residual glucosidase activity, Temp 60° C. / Residual glucosidase activity, Temp 65° C. / Residual glucosidase activity, Temp 70° C. / Residual glucosidase activity, Temp 73° C. / Residual glucosidase activity, Temp 75° C. / Residual glucosidase activity, Untreated: Example 9; for Residual glucosidase activity, Temp 50° C.: 10 minutes at 50° C.; for Residual glucosidase activity, Temp 55° C.: 10 minutes at 55° C.; for Residual glucosidase activity, Temp 60° C.: 10 minutes at 60° C.; for Residual glucosidase activity, Temp 65° C.: 10 minutes at 65° C.; for Residual glucosidase activity, Temp 70° C.: 10 minutes at 70° C.; for Residual glucosidase activity, Temp 73° C.: 10 minutes at 73° C.; for Residual glucosidase activity, Temp 75° C.: 10 minutes at 75° C.; for Residual glucosidase activity, Untreated: no heat treatment (reference set to 100); for thermostability (in words): compared with P3AaBGL1 / β-glucosidase without the mutation
Description: To 10 μl of 20 mM pNPG, 10 μl of 1M sodium acetate buffer solution (pH 5.0) and 130 μl of water were added, and then 50 μl of a diluted enzyme sample preliminarily heat-treated at […] for 10 minutes was introduced for reacting them at 37° C. for 10 minutes. As a control, a diluted enzyme sample which was not subjected to the heat treatment was used, and then the reaction was carried out at 37° C. for 10 minutes, in the same manner. 100 μl of each reaction mixture was mixed with 100 μl of 2% sodium carbonate solution to terminate reaction, and then the amount of liberated p-nitrophenol was colorimetrically measured at a wavelength of 450 nm.
The ratio (%) of the colorimetric value of each reaction mixture to the colorimetric value of the control sample (untreated sample) was defined as the residual activity after heat treatment.
as §1, §2, §3

Row | Molecule | Activity [1] [mU/ml] | Residual glucosidase activity, Glc 0 mM [2] [%] | Residual glucosidase activity, Glc 1 mM [2] [%] | Residual glucosidase activity, Glc 5 mM [2] [%] | Residual glucosidase activity, Glc 10 mM [2] [%] | Residual glucosidase activity, Glc 20 mM [2] [%] | Residual glucosidase activity, Glc 50 mM [2] [%] | Residual glucosidase activity, Glc 100 mM [2] [%] | Residual glucosidase activity, Glc 200 mM [2] [%] | resistance to glucose inhibition (in words) [2] | Residual glucosidase activity, Temp 50° C. [3] [%] | Residual glucosidase activity, Temp 55° C. [3] [%] | Residual glucosidase activity, Temp 60° C. [3] [%] | Residual glucosidase activity, Temp 65° C. [3] [%] | Residual glucosidase activity, Temp 70° C. [3] [%] | Residual glucosidase activity, Temp 73° C. [3] [%] | Residual glucosidase activity, Temp 75° C. [3] [%] | Residual glucosidase activity, Untreated [3] [%] | thermostability (in words) [3]
1 | R629L: modified-type P3AaBGL1 with R629L only (mutation 6) (protein) MKITAVIALLFSLAAASPIPVADPGVVSVSLKKRADELAFSPPFYPSPWANGQGEWAEAYQRAVAIVSQMTLDEKVNLTTGTGWELEKCVGQTGGVPRLNIGGMCLQDSPLGIRDSDYNSAFPAGVNVAATWDKNLAYLRGQAMGQEFSDKGIDVQLGPAAGPLGRSPDGGRNWEGFSPDPALTGVLFAETIKGIQDAGVVATAKHYILNEQEHFRQVAEAAGYGFNISDTISSNVDDKTIHEMYLWPFADAVRAGVGAIMCSYNQINNSYGCQNSYTLNKLLKAELGFQGFVMSDWGAHHSGVGSALAGLDMSMPGDITFDSATSFWGTNLTIAVLNGTVPQWRVDDMAVRIMAAYYKVGRDRLYQPPNFSSWTRDEYGFKYFYPQEGPYEKVNHFVNVQRNHSEVIRKLGADSTVLLKNNNALPLTGKERKVAILGEDAGSNSYGANGCSDRGCDNGTLAMAWGSGTAEFPYLVTPEQAIQAEVLKHKGSVYAITDNWALSQVETLAKQASVSLVFVNSDAGEGYISVDGNEGDRNNLTLWKNGDNLIKAAANNCNNTIVVIHSVGPVLVDEWYDHPNVTAILWAGLPGQESGNSLADVLYGRVNPGAKSPFTWGKTREAYGDYLVLELNNGNGAPQDDFSEGVFIDYRGFDKRNETPIYEFGHGLSYTTFNYSGLHIQVLNASSNAQVATETGAAPTFGQVGNASDYVYPEGLTRISKFIYPWLNSTDLKASSGDPYYGVDTAEHVPEGATDGSPQPVLPAGGGSGGNPRLYDELIRVSVTVKNTGRVAGDAVPQLYVSLGGPNEPKVVLRKFDRLTLKPSEETVWTTTLTRRDLSNWDVAAQDWVITSYPKKVHVGSSSRQLPLHAALPKVQ | 526 | 100 | 91.5 | 67.4 | 53.9 | 37.6 | 19.6 | 11.1 | 6.9 | without decreasing | 98.7 | 93.7 | 90.7 | 71.8 | 26.5 | 3.5 | 1.5 | 100 | can be improved
2 | Q156L: modified-type P3AaBGL1 with Q156L only (protein) MKITAVIALLFSLAAASPIPVADPGVVSVSLKKRADELAFSPPFYPSPWANGQGEWAEAYQRAVAIVSQMTLDEKVNLTTGTGWELEKCVGQTGGVPRLNIGGMCLQDSPLGIRDSDYNSAFPAGVNVAATWDKNLAYLRGQAMGQEFSDKGIDVLLGPAAGPLGRSPDGGRNWEGFSPDPALTGVLFAETIKGIQDAGVVATAKHYILNEQEHFRQVAEAAGYGFNISDTISSNVDDKTIHEMYLWPFADAVRAGVGAIMCSYNQINNSYGCQNSYTLNKLLKAELGFQGFVMSDWGAHHSGVGSALAGLDMSMPGDITFDSATSFWGTNLTIAVLNGTVPQWRVDDMAVRIMAAYYKVGRDRLYQPPNFSSWTRDEYGFKYFYPQEGPYEKVNHFVNVQRNHSEVIRKLGADSTVLLKNNNALPLTGKERKVAILGEDAGSNSYGANGCSDRGCDNGTLAMAWGSGTAEFPYLVTPEQAIQAEVLKHKGSVYAITDNWALSQVETLAKQASVSLVFVNSDAGEGYISVDGNEGDRNNLTLWKNGDNLIKAAANNCNNTIVVIHSVGPVLVDEWYDHPNVTAILWAGLPGQESGNSLADVLYGRVNPGAKSPFTWGKTREAYGDYLVRELNNGNGAPQDDFSEGVFIDYRGFDKRNETPIYEFGHGLSYTTFNYSGLHIQVLNASSNAQVATETGAAPTFGQVGNASDYVYPEGLTRISKFIYPWLNSTDLKASSGDPYYGVDTAEHVPEGATDGSPQPVLPAGGGSGGNPRLYDELIRVSVTVKNTGRVAGDAVPQLYVSLGGPNEPKVVLRKFDRLTLKPSEETVWTTTLTRRDLSNWDVAAQDWVITSYPKKVHVGSSSRQLPLHAALPKVQ | 507 | 100 | 92.8 | 64.9 | 46.8 | 31.5 | 15.5 | 8.8 | 5.4 | decrease | 93.9 | 89.7 | 83.9 | 46.0 | 6.3 | 0.9 | 1.4 | 100 | decrease
